How the values were obtained:
Ang2-Tie2 binding = biological target: T1, Ang2-Tie2 binding (Homo sapiens, UniProt O15123); experiment: Ang2-Tie2 binding competition ELISA; conditions: antibody 400 nM to 0.001 nM; 400 ng/ml FLAG-tagged hAng2; hTie2-Fc coated plate
T1 construct: purchased R&D Systems (hTie2-Fc)
T1 sequence (O15123 19-496): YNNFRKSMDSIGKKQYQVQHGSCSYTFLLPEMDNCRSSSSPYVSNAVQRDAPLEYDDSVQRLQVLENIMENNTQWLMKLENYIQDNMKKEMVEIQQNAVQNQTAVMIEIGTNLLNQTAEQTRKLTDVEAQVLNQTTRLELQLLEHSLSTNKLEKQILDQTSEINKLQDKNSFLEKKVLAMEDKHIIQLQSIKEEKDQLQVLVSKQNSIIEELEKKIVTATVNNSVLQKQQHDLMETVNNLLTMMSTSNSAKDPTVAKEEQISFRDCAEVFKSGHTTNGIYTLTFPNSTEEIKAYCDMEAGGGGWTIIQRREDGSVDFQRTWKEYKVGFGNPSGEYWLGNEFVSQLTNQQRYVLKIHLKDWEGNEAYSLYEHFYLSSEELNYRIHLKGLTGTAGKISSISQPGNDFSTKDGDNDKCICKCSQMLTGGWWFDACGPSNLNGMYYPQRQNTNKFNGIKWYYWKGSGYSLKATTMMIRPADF
Protocol: Ang2-Tie2 binding competition ELISA was conducted using the antibody binding to Ang2 prepared in Example 2-1 above.
More specifically, MaxiSorp™ flat-bottom plate (Nunc) of 96-well was coated with hTie2-Fc (R&D Systems) which is a protein bound with 4 ug (microgram)/ml of Fc of human IgG1. After that, the plate was washed five times with 0.05% (v/v) Tween-20-containing PBS (phosphate buffer saline) and then blocked with 1% (v/v) BSA (bovine serum albumin; Sigma)-containing PBS at a room temperature for 2 hour.
For Ang2:Tie2 competition ELISA, each anti-Ang2 antibody obtained in Example 2 was placed at various concentrations of 400 nM to 0.001 nM into each well coated with the hTie-2/Fc fusion protein along with 1% (v/v) BSA and 400 ng/ml of a FLAG-tagged hAng2 and then, the plate was allowed to react at a room temperature for 2 hours and washed five times with PBST. […] Lastly, 100 ul (microliter) of TMB substrate (Cell Signaling) was added to each well of the plate to induce color development for 3 min. and then, the reaction was ceased by the addition of 100 ul of Stop solution (Cell Signaling) and OD450 values were measured on a plate reader (Molecular Devices). […]

[1] = system: LLC (Lewis Lung Carcinoma); experiment: LLC tumor growth model; type: in vivo, mouse; conditions: LLC in C57BL/6 mice; 10 mg/kg intraperitoneal three times a week; control Fc of IgG1
Protocol: To see the tumor growth inhibitory effects of Ang2 antibody, a […] Xenograft model using a LLC (Lewis Lung Carcinoma) was employed.
LLC cells (ATCC) were cultured using 10% FBS (Gibco)-supplemented DMEM (Gibco) media. 1×10^6 of LLC cells were re-suspended in 100 ul of PBS (Gibco) and then subcutaneously injected into 6˜8-week-old C57BL/6 mice (Jackson Laboratory) anesthetized with 1˜2% isoflurane.
When the size of tumors reached 50˜100 mm^3, anti-Ang2 antibody (10D6) was injected at the concentration of 10 mg/kg via an intraperitoneal injection three times a week and the size of the tumors was measured.
The size of tumor (V) was calculated using the following formula: Volume (V)=(width)2×length/2
For comparison, the same experiment was performed to a control group treated with Fc of IgG1 and a comparative group treated with antibody 4H10 (refer to Example 3).

LLC tumor = experiment: Co-administration of anti-Ang2 antibody and cisplatin in LLC lung cancer animal model; type: in vivo, mouse; conditions: LLC mice; antibody 10 mg/kg i.p. every three days, five times; cisplatin 3 mg/kg i.p. once; control Fc of IgG1
Protocol: The synergistic effect of co-treatment of antibody 10D6 and cisplatin was examined.
In particular, referring to Example 14, LLC tumor cells were subcutaneously injected into mice. When the size of tumors reached 50˜100 mm^3, anti-Ang2 antibody 10D6 was injected at the concentration of 10 mg/kg via an intraperitoneal injection every three days a total of five times. After administering antibody 10D6 twice, 3 mg/kg of cisplatin (Sigma-Aldrich) was intraperitoneally injected once. The size of tumor (V) was calculated using the following formula: Volume (V)=(width)2×length/2
For comparison, the same experiment was performed to a control group treated with Fc of IgG1 and a comparative group treated with antibody 4H10.
In addition, an experiment was performed to examine whether the synergistic effect obtained by co-administration of 10D6 and cisplatin as described above is due to the increased transporting efficiency of the administered cisplatin induced by the vascular normalization by treatment of 10D6. Cisplatin binds to DNA in a living body and induces crosslinking, thereby inducing cell death. Rat monoclonal anti-Cisplatin modified DNA (CP9/19) antibody (1:200, Abcam), which is capable of binding to DNA modified by cisplatin in tumor frozen sections, and hamster anti-CD31 antibody (1:200, Millipore), were used for immunofluorescence staining, and fluorescence images were obtained using LSM5 confocal microscope (Zeiss). In addition, to examine necrotic region, the tumor frozen sections were stained with H&E according to standard protocol, and then, Eosin+ cell region in tumor was observed. The obtained results are illustrated in FIG. 18C.

inhibition of Ang2-Tie2 binding (Ang2-Tie2 binding): inhibiting Ang2-Tie2 binding
B1: 4H10: anti-Ang2 antibody inhibiting Ang2-Tie2 binding; heavy chain variable region SEQ ID NO: 12, light chain variable region SEQ ID NO: 13 (antibody, V domains shown)
VH: EVQLLESGGGLVQPGGSLRLSCAASGFTFSSYDMSWVRQAPGKGLEWVSLISPDSSSIYYADSVKGRFTISRDNSKNTLYLQMNSLRAEDTAVYYCAKDLISFWRGGFDYWGQGTLVTVSS
VL: QSVLTQPPSASGTPGQRVTISCSGSSSNIGSNYVNWYQQLPGTAPKLLIYADSNRPSGVPDRFSGSKSGTSASLAISGLRSEDEADYYCGSWDYSLSGYVFGGGTKLTVLG
modifications: Synthetic (heavy chain variable region of 4H10); Synthetic (light chain variable region of 4H10)
inhibition of growth of the tumor compared to the control group [1]: about 27%
tumor size decreased by, compared to the control (LLC tumor): 29.2%
